Data taken from the RNAGym collection of RNA variant scans (doi:10.7554/elife.90254).

B1: LINE1-full (parent)
chain: UACGUAGGUGGUUUUCCCCUGAUAGUGCUAAGGGGGCCUGGAAGUUUGGACUGGGCAGAGCUCAACACAGCGUGGCAAAGUGGCUGUGGCUAGACUGCCUCUCUGGAUUCCUCGUCACUCAGCAGGGCAUCUCUGAGAGAAAUGCC

Variants of: B1
Assay: self-cleavage, relative activity (ratio to wild type); higher = more cleavage; in vitro, sequencing; the parent is a self-cleaving ribozyme

In order of falling self-cleavage:
1. U102C A117C  2.63
2. G32A G122A  2.13
3. G82A U102A  2.12
4. A77G C145U  2.12
5. U81A U100A  2.09
6. A30U A50G  2.04
7. U52G U143C  1.99
8. U73C U104A  1.93
9. U39C A77G  1.93
10. A124G G139U  1.91
11. U23C A121C  1.9
12. U81A A136G  1.9
13. A79U G137A  1.87
14. U73C A140U  1.85
15. A42G A129U  1.75
16. G82A A107G  1.73
17. A31U U52A  1.73
18. G82U U143C  1.72
19. A31U U46G  1.67
20. C118U C131U  1.66
21. A121G A136G  1.65
22. C101U U119C  1.65
23. C101A A141G  1.64
24. G74C  1.6
25. U73G U134C  1.57
26. U112C A141G  1.57
27. U20C U73A  1.56
28. C131G  1.54
29. U112C U132G  1.53
30. U46C C51A  1.52
31. C103U U115C  1.51
32. A77G U109C  1.51
33. U45A U115C  1.51
34. U20C C116A  1.5
35. C123U A136G  1.49
36. U46A A136G  1.48
37. A24G U115C  1.46
38. C101U U134C  1.45
39. A107G C145U  1.45
40. U9C U112C  1.45
41. A59U A78U  1.43
42. A31U A138U  1.4
43. U26A A124C  1.4
44. U1A U12C  1.4
45. C101U  1.39
46. G35C U46C  1.38
47. G48A G125A  1.38
48. G25A A142G  1.35
49. U12C U23C  1.34
50. U26A U132A  1.34
51. U52A G114C  1.34
52. G53A G126U  1.31
53. U47A G106A  1.3
54. A43G G48U  1.28
55. A142G U143A  1.28
56. U39C G122A  1.25
57. G49A A117G  1.24
58. A78G  1.23
59. U20A C71U  1.22
60. U13A U130C  1.22
61. U29C U119A  1.21
62. U26A A142G  1.2
63. U14C C113A  1.19
64. A31G G139A  1.19
65. U9A U39A  1.16
66. C111A A141U  1.14
67. U46C U102C  1.13
68. G53C  1.13
69. A43G U45C  1.1
70. U12A G32A  1.08
71. U46G G72A  1.07
72. C3U U26A  1.04
73. A2G G21C  1.04
74. U45C A50U  1.02
75. U20A G53A  1.01
76. U12C C103A  1.01
77. U73A U102C  0.97
78. U14A A136G  0.97
79. G4A U108G  0.96
80. U13A A79U  0.96
81. U12G U13C  0.95
82. U47A A107G  0.95
83. A31U C146U  0.94
84. A42G A140C  0.93
85. C19U A140G  0.92
86. A124U A129U  0.9
87. G4A  0.89
88. C17A A79U  0.87
89. A43U U45C  0.87
90. A31G A138G  0.86
91. A31G U132C  0.85
92. U13A U134C  0.85
93. U46A G75U  0.84
94. G126U U134A  0.84
95. C99A U119C  0.82
96. A43G A57G  0.78
97. U109C A142G  0.77
98. G4C U91A  0.75
99. G54U G114U  0.74
100. U5C U109A  0.74
101. G4A A64U  0.72
102. C19A U134C  0.67
103. A30G A138G  0.64
104. U9A C71A  0.6
105. A79U U91A  0.58
106. A2G C19U  0.56
107. A2G U130C  0.56
108. A78U U104G  0.55
109. G34U A67G  0.54
110. A42C A67G  0.52
111. G54A A117G  0.52
112. C38A A50G  0.51
113. A64C A78U  0.46
114. A2G A129G  0.46
115. A124G C128A  0.46
116. U13A U29A  0.42
117. A2G U5A  0.42
118. U29A U91C  0.4
119. C63U U130C  0.39
120. U13A U47G  0.38
121. C3A G72A  0.38
122. U47C U85G  0.32
123. U47C A64G  0.31
124. G32C U85C  0.27
125. G32A A64G  0.24
126. U1C G32U  0.21
127. U87C G114U  0.19
128. A50G U87C  0.14
129. U47A C56U  0.14
130. U85A U134C  0.13
131. A92G U96A  0.13
132. A42C G54A  0.13
133. C17A G70U  0.13
134. A22U C68U  0.13
135. C98G U112C  0.12
136. U96A G137A  0.12
137. G41U C98U  0.12
138. C98A A140G  0.12
139. U13C A57U  0.12
140. U96C A129G  0.11
141. A59G U108A  0.11
142. U14A A67U  0.1
143. U62C A117G  0.1
144. U87C A92G  0.1
145. U13C A69U  0.1
146. U23C G58A  0.1
147. U85A A121U  0.07
148. C68A A69G  0.07
149. A24G U62A  0.07
150. U14C A57U  0.06
151. A69U U87C  0.06
152. A24U A59G  0.06
153. A67U A94U  0.05
154. U47G G97A  0.05
155. C95A A136U  0.05
156. U96A U115C  0.05
157. A22G C90U  0.04
158. A69U U73A  0.04
159. U62A A140G  0.04
160. A50U U62C  0.04
161. G58A U109A  0.04
162. U73A G86A  0.04
163. G89A A142G  0.03
164. A42U A69C  0.02
165. G7C A92G  0
166. U5G U112A  0
167. U87G A94G  0
